# Source: patent US12378310 (MULTITUDE, dated 2025)
# Target: recombinant FOLR1 protein (rProtein) (Homo sapiens (Human), UniProt P15328 25-234, limits assumed)
# Assay: ELISA titration with varying concentrations of recombinant FOLR1 protein
# Method: Antibodies were tested in an antigen binding assay using ELISA titration experiments.
# Chain of recombinant FOLR1 protein (rProtein) (P15328 25-234 limits assumed): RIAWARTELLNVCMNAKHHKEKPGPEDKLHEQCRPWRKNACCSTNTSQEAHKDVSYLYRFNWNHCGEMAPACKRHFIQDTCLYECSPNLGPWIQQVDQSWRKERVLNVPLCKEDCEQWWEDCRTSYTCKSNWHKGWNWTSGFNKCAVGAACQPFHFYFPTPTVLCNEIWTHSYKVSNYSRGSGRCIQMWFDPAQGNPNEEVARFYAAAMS
row,Binder,rProtein ELISA Affinity
1,"FOLR1-Ab1 (antibody, V domains shown, Monoclonal antibody from a hybridoma clone; V regions amplified with mouse Ig primers) VH: QVQLQQPGAELVRPGASVKLSCKASGYTFTSYWMNWVKQRPEQGLEWIGRINPYDSETHSNQKFKDKAILTVDKSSTTAYMQLSSLTSEDSAVYYCARSGGYAWFAYWGQGTLVTVSA VL: not shown",0.39 nM
2,"FOLR1-Ab20 (antibody, V domains shown, Monoclonal antibody from a hybridoma clone; V regions amplified with mouse Ig primers) VH: EVLLQQSGPELVKPGASVKIPCKASGYTFTDYNMDWVKQSHGKSLEWIGDINPNNGGTIYNQKFKGKATLTVDKSSSTAYMELRSLTSEDTAVYYCARKPYYGPRYFDVWGAGTTVTVSS VL: not shown",12.5 nM
3,"FOLR1-Ab4 (antibody, V domains shown, Monoclonal antibody from a hybridoma clone; V regions amplified with mouse Ig primers) VH: QIQLVQSGPELKKPGETVKISCKASIYTFTDYSIQWVKQAPGKGLKWMGWINTETGEPTYADDFKGRFAFSLESSASTAFLQINNLKNEDTATYFCARMGYYGPKIMDYWGQGTSVTVSS VL: not shown",0.78 nM

# The remaining lines, values ahead:
row,rProtein ELISA Affinity,Binder
1,6.25 nM,"FOLR1-Ab23 (antibody, V domains shown, Monoclonal antibody from a hybridoma clone; V regions amplified with mouse Ig primers) VH: EVLLQQSGPELVKPGASVKIPCKASGYTFTDYNMDWVKQSHGKSLEWIGDINPNNGGTIYNQKFKGKATLTVDKSSSTAYMELRSLTSEDTAVYYCARKPYYGPRYFDVWGAGTTVTVSS VL: not shown"
2,3.12 nM,"FOLR1-Ab14 (antibody, V domains shown, Monoclonal antibody from a hybridoma clone; V regions amplified with mouse Ig primers) VH: EVLLQQSGPELVKPGASVKIPCKASGYTFTDYNMDWVKQSHGKSLEWIGDINPNNGGTIYNQKFKGKATLTVDKSSSTAYMELRSLTSEDTAVYYCARKPYYGPRYFDVWGAGTTVTVSS VL: not shown"
